{"source": "the DeepSol protein solubility set"}
{"assay": "soluble on expression in E. coli; label from the status in PepcDB or PDB records"}
{"sequence": "MSLGEQTTISDSKGLFHKEFPYVIPPVYRKVLDEYLVELNLLSNQSNFKIDTIFSYGLIISFERFTVGYEPDSHISKILESLCNSCNIDIKAIKEYSNNIKKLINEKGIKEIINILTAEIKKSVGGIALSNQSGKDKYYSRLHAIGIYELISNINEDKKEGDDKEIISECVEALGFSKDRVEKDINQYKNSMEKIKEMMELIKLTVEETKRKAKLNEGHHHHHH", "soluble on expression in E. coli": "soluble"}
{"sequence": "MSLGGELSLQIINKNPYKLYMDIKGFGFKTVDSIALSMGIEPDSNFRTKAAILYCLEQKEQNGDTYAFIEDIHQQVEKLLNIKINDIKNYLDKEYYYFDVLRLAKRTTWETEKDISVRLKEKINNSQKLFTNNVIHLIPEIERILRIKYDDKQKELFYKINENNILVLTGFAGTGKSSVLNGLLNLFDKKNITYKLMSPTAKAAKRMEECTGKKASTIHRALGLAEGKFLVNEKNPFAEDVIIIDETSMVDIYLFLAVLKGIKNTTKLLCLGDYGQLESISAGNVLFDMIQGGIPCVKLEKIFRQKEDSSLLNVITNIRNGDNPLKNTHKTYLELGRDCKFWLGKKEQTLSRVLLCYKECLKHFSREDIMVLCPMKKGNSGVNKLNQELQKIANSQNTEELKLKDCAYKKEDLVMHIKNDYNANIFSEDCKDTIAKGIFNGDAGKIEKIDLENQKLYVSYDSGIVEYDNSNLNELMLSYALTIHKVQGSQSKVVIVALDMSHYKMLKRSLLYTAASRCVELLIFICDPKAFSIALNNNQVTHKNTFLGELLKISEGHHHHHH", "soluble on expression in E. coli": "soluble"}
{"sequence": "MSLGGSAMYHAQLGREYHEKALKYRSLAMRSLAHSGTSHSLDLHGATVREAKTIVRERVAAWWAKEADTSPNSIRPFVIVTGRGNHSIGLEARLLPAIVRLLQQDHWRFDAEHGQITVYGINRHSKEGHHHHHH", "soluble on expression in E. coli": "soluble"}
{"sequence": "MSLGNPTSINPGGSSTTTGMAFNEENGFQVSDYAGQPEGPNLVYIEGGRTVLGSFEEDLMKNGDNVERTVTVASFYMDETEIANIHWLEYLFYVQRDSSQEFYESALPDTTVWASELAYNDPYVDHYFRYPGFRYFPVVGVNWIQANDYCIWRTTVVNNQLAQNAGIDVPEGGGRIPLESGVVLPNYRLPSEAEWEYAAQALIGNQWLDENQTHKRLYPWDGHALRNPYGKQMGMFLANFKRGRGDYAGIAGKLNDGAMITTYIYEFPPNDFGLYCMAGNVNEWVYDVYRPLSFQTFDDLNPLRRNGFLDEEKGYDKAGFQSLVDDHVRVYKGGSWKDVAYWMSPGTRRYLAEDSCTATIGFRCAMIQAGTEGHHHHHH", "soluble on expression in E. coli": "soluble"}
{"sequence": "MSLGPMRDLTWGQINFIHTTDTHGWIGGHLQEPQYSADWGDYISFTKHMRDQADKRGSDLLVIDTGDRIEGNGLYDASTPKGLFQYDIYAEADVDIMSTGNHELYKAYSADMEHNTTVPNYKNSYLASNLDYISFETGDRVPQAPRYKKFKTKNQGLNIVAFGFLFDFTGNANNTVVQPVEDTIKEDWFQEAIHEKPDLFVVIGHVGLRMEEFKVIYTAIRKQNWHIPIAFFGGHAHVRDTVQYDSKALAIASGRYFETIGWMSIDGIKKGGAKDVEAAASPTEGHHHHHH", "soluble on expression in E. coli": "soluble"}
{"sequence": "MSLGQTTLACSFRSLTNPYYTAFNKGAQSFAKSVGLPYVPLTTEGSSEKGIADIRALLQKTGGNLVLNVDPNDSADARVIVEACSKAGAYVTTIWNKPKDLHPWDYNPNYVAHLSYDGVAYGEETATQLFKSMGGKGGVVALGGIFSNVPAIERKAGLDAALKKFPGIQLLDFQVADWNSQKAFPIMQAWMTRFNSKIKGVWAANDDMALGAIEALRAEGLAGQIPVTGMDGTQPGLVAIKSGELVASVDWDPFWLGGIGLSMGLQAKEKKIDLATLPKDRRESFCTATFVTKTNVQDVIARAASPKAEWNNLYARVAGPVVYREGHHHHHH", "soluble on expression in E. coli": "soluble"}
{"sequence": "MSLGQVFYYQPEQVHLSFGESPLEIVVTWSTMTATNESIVEYGIGGLILSATGTETKFVDGGPAKRTQYIHRVVLRDLQPSSRYEYHCGSRWGWSAEFYFHTTPAGTDWSPSLAIFGDMGNENAQSMARLQEDTQRHMYDAILHVGDFAYDMNTDDALVGDQFMNQIQSIAAYTPYMVCAGNHEEKYNFSNYRARFSMPGGTENIMYSFNLGPVHFIGFSTEVYYFMNYGLKPLVKQYEWLRRDLEEANRPENRKLRPWIVTYGHRPMYCSNDNDNDCTHSETLVRVGLPFMHWFGLEDLFYEHGVDVEIWAHEHSYERLFPIYDYKVYNGSYEEPYRNPRAPVHLVTGSAGCKEGREPFINKIPTWSAIHSRDYGYTRMKAINGSHLYFEQISVDKEGAVIDSFTIIKDEGHHHHHH", "soluble on expression in E. coli": "soluble"}
{"sequence": "MSLGQVGVGRVLQRYIILKGRNSEHLFVAAESLIAIDRLPAAIITRLTQTNDPLGEVMAASHIETFKEEAKVWVGDLPGWLALHGYQNSRKRAVARRYRVISGGQPIMVVTEHFLRSVFRDEGHHHHHH", "soluble on expression in E. coli": "not soluble"}
{"sequence": "MSLGSGHMIGVDVGETRVRVELFDLSLAELARTERPLAHKGRQAYDVGVIVGHIRDGVAEVLAAAGITAGELLGVGIGVPGIVERSGEGGAVVHGQTIGWDAVPLEHMLRLSGQLPEHVPYFIDNGAKTLGQAEMWFGAGRGAHNAVVVLFGSGVGACVVTDEVEHGRAVEWGHLTVRVQGRRCRCGALGCLEAYAGAEALLARWQEAGGQPPYDTDEETALTAMLAAAYPEDGRAPDPVAAAVLAETAEYLGAGLSDLINLFQPERILVGGWAGLQLGSRFLESVRTHALAYALRYPAGRVGIELGRLGPDAVTVGAAILPLADFFAHGGRRAEGHHHHHH", "soluble on expression in E. coli": "soluble"}
{"sequence": "MSLGTLKLFNIGNMVTYSMNESSMISSKGMEILISDGKIIEIGPKVGDADQLFDCENKLVTPGFVDCHTHPVFLDGRENEFEMRLKGFSYEEIANEGGGIKNSVKSVRNSSEVELYNRVISRMDKFLKLGTTTIEAKSGYGLDINSELKSLKVIHEVNLAHQIDILPTFMGAHAVPNEYADDIDSYVDLICDSMIPQVAEQGIAIFNDVFCEKGYFNLKQSERILKKGLDYGLLPRIHSDEFNNLGASKLAGKLNLISADHLMKIEKDDIEIMADSNTKAVLLPGTTFFLGHSNYAPYHKLKEAGIEVAIASDYNPEGHHHHHH", "soluble on expression in E. coli": "soluble"}
{"sequence": "MSLGTQEDVLSLISGGFDSGVSSYLHIKRGSKVHYCFFNLGGPAHEIGVKQTAYYLWQKYGSSAKVRFIAIDFAPVVAEILEKIDDGQMGVVLKRMFMRTAGMVAEKFGIQALVTGEALGQVSSQTLTNLRHIDNVTDTLILRPLINWDKEDIIRLAREIGTEDFAKTMPEFCGVISKSPTVKAVKEKLEEEEAKFDFALLDQVVYNARQIDIRDIGKESLEKAPEVELVNSAEEGNAVVLDIRSPDEEDESPLEIVGVEVKHLPFYKLATQFGDLDQSKTYLLYCSRGVMSRLQALYLQEQGFNNVKVYREGHHHHHH", "soluble on expression in E. coli": "not soluble"}
{"sequence": "MSLGTVTITEMDCVDGVHRIGVATLDNTPSLNALTFDMLLQLHDQLIKWQHDPHVVCVVLSGAGEKAFCAGGDVRAMYHVMHNESKEATVEFCTKYFALEYECDYLIHTYNKPIIGWGEGIVMGGGMGLFMGTSHKVVTPISRLAMPEINIGLYPDVGGTWFLSQIDPEVGLFLGLTGALVNSSDAVTTGLADWLLLEEQYPTLLKELQKVPWGTSGAKELVSALLALLEEQIIDSKPTTQICPHLEQIKEACKGVDLNLIAQRIMAMEDSSPWIAGAKETFSSGSPITAHICFRQVKEYHRLPLADCFRLELSLSVRCALLGEFEEGVRARLIDRDGEPNWMFKTVSEVDEDVIDLLFTSLWADAEHPLAKLGEGHHHHHH", "soluble on expression in E. coli": "soluble"}
{"sequence": "MSLGYNFHLSDMQAQLEQQAAEEETLKQQFSTKAFQAANLEAYKAQMKEMEESFGALLRQLPSDTEVPGLLEDITRTGLGSGLEFEEIKLLPEVAQQFYIELPIQISVVGGYHDLATFVSGVSSLPRIVTLHDFEIKPVAPGSTSKLRMSILAKTYRYNDKGLKKEGHHHHHH", "soluble on expression in E. coli": "soluble"}
{"sequence": "MSLGYTTAKKEVSVVIEDGINEIINKTERFVSLKLESDISLASSIVDSISLRISDEQYINDIINGNAIKKAFLSTGFGFDSNGKVIENDPNWEPEDDYDPRSRGWYQEAKKNKRIFITEPYLDTEGKNFLVSISSPVADTMNNFIGAMYFDVDLSRIQKNVDDINLFEAGYVFITSNTGKVIIHSNTDELGKNVKDIYNGFRLDKGKVVLSVNGVNKWLYTSPILGGDWFIIAVIDESIAMQSINKMKYEEGHHHHHH", "soluble on expression in E. coli": "soluble"}
{"sequence": "MSLHAVDHHAILARFAPSRGGDGNIFRDIDPSRLAHIVVDMQNGFMEEGAPVEVPVARTIVDNINRISAAVRDAGGHNVFLRYTTPPEGGPSWSNFMVRMGREAQGHREAFTPGAHHWQLWPTLDVREADAIVDKHRFSGFTPGTCALKDVLDARGIDTVLITGTLTNCCCESTARDAMQHNYRVLMASDANAALSDEEHAATLHIMAMVFADLHSTQEVVDLLGSEGHHHHHH", "soluble on expression in E. coli": "soluble"}
